Laboratory results: patent publication US20240417484A1, “ANTIGEN-BINDING POLYPEPTIDES AGAINST CD73” (UNIVERSITÄTSKLINIKUM HAMBURG-EPPENDORF, priority 2021, published 2024)
Positions count from the first letter of the chain named.

T1: soluble human CD73 (Homo sapiens, UniProt P21589)
T1 construct: The ectodomain of CD73 (aa 27-549) was expressed as a recombinant protein with a C-terminal His6× tag; His6 (C); made in house; host or cells: transiently transfected HEK cells
T1 sequence (P21589 27-549): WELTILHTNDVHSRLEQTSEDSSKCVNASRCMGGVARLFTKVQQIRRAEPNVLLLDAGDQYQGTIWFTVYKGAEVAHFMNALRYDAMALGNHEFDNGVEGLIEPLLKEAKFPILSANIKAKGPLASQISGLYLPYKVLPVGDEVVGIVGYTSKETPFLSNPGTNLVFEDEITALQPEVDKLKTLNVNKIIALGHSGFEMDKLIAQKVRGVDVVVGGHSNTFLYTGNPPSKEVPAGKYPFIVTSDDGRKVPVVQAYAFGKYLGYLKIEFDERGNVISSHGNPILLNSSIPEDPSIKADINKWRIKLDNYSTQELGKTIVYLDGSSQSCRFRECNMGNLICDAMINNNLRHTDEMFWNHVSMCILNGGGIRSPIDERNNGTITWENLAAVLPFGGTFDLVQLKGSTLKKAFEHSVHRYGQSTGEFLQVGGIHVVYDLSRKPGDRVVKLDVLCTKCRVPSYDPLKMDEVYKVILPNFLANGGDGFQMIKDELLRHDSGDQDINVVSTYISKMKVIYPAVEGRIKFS

T2: CD73-expressing human AML-OCI3 cells (Homo sapiens, UniProt P21589)
T2 construct: CD73-expressing human AML-OCI3 cells (AML cell line); endogenous in cells; host or cells: OCI-AML3 human AML cell line
T2 sequence (P21589 27-549): T1 sequence (P21589 27-549)

T3: human CD73 (Homo sapiens, UniProt P21589)
T3 construct: expressed in transfected cells; stably transfected in method 5.1)
T3 sequence (P21589 27-549): T1 sequence (P21589 27-549)

T4: human CD73-transfected HEK cells (Homo sapiens, UniProt P21589)
T4 construct: expressed in transfected cells; stably transfected in method 5.1)
T4 sequence (P21589 27-549): T1 sequence (P21589 27-549)

B1: SB121: CD73-specific alpaca VHH clone, family 5, SEQ ID NO:82; tested as rabbit or human IgG hcAb (antibody)
heavy: QVQLQESGGGLVQAGGSLRLSCAASGSIGSIIAMGWYRQGPGKQRELVARMFTDDGSTNYDDSVKGRFTISRDSAGTTVYLQMNSLKPEDTAVYYCNAQRRWNAYWGPGTQVTVSS
modifications: left off: a dimerising Fc or GST
notes: tested as rabbit or human IgG hcAb
B2: SB116: CD73-specific alpaca VHH clone, family 3, SEQ ID NO:81; tested as rabbit or human IgG hcAb (antibody)
heavy: QVKLQESGGGRVQTGGSLRLSCAASGISFSITTMYWYRQAPGEQRQLVALITDRGNTYYVDSVKGRFTISRDDSKNTVYLQMNDLKPEDTAVYFCNSIPGNDWGQGTQVTVSS
modifications: left off: a dimerising Fc or GST
notes: as for B1
B3: SB139: CD73-specific alpaca VHH clone, family 6, SEQ ID NO:83; tested as rabbit or human IgG hcAb (antibody)
heavy: QVQLQESGGGLVQAGGSLRLSCAASENIFNIYGMGWYRQAPGKLRDLVAKITSGGRTTYADSVKGRFTISGDNAKNTVYLQMNSLKPEDTAVYYCNSYYYWGQGTQVTVSS
modifications: left off: a dimerising Fc or GST
notes: as for B1
B4: SB143: CD73-specific alpaca VHH clone, family 4 in Tables 1-3, SEQ ID NO:69; tested as rabbit or human IgG hcAb (antibody)
heavy: QVQLVESGGGLVQAGGSLRLSCAASGRTFSRSTMGWFRQAPGKERVFVAAIRWIGGTTTYGDSVKGRFTISVDNAKNTLYLQMNSLKPEDTAVYYCAATAGGPYYLGGRDILYDYWGQGTQVTVSS
modifications: left off: a dimerising Fc or GST
notes: as for B1
B5: SB144: CD73-specific alpaca VHH clone, family 4 in Tables 1-2, SEQ ID NO:70; tested as rabbit IgG hcAb (antibody)
heavy: B4 heavy with R31G, V46A, T58A, T59K, V72I, Y104D, L112V
modifications: left off: a dimerising Fc or GST
notes: tested as rabbit IgG hcAb
B6: SB141: CD73-specific alpaca VHH clone, family 2 in Tables 2-3, SEQ ID NO:72; tested as rabbit or human IgG hcAb (antibody)
heavy: QVQLVESGGGLVQPGGSLRLSCAASGFTFINYHMSWLRQAPGKGLEWVSEIHSRGDITSYTNSVKGRFTISRDNAKNTLYLQMNSLKFDDTAVYYCARSRDLFNEGEYDYWGRGTQVTVSS
modifications: left off: a dimerising Fc or GST
notes: as for B1

The molecules below were run against T1, soluble human CD73 (assay: Off-rates of soluble CD73 from immobilized Nb-rbIgG hcAb on Octet BLI). Details: soluble human CD73 ectodomain 200 ng/μl as analyte; Nb-rbIgG hcAb immobilized on protein A biosensor.
Format: binding
Experimental: The binding off-rate constants of bivalent hcAbs to human and mouse CD73 protein were determined by […] kinetic analysis on Octet RED96 (ForteBio). Immobilization of rabbit IgG hcAbs on the protein A-biosensor surface was done in HEK-6E cell supernatant, and regeneration of analytes was done with 100 mM Glycin pH=2.5. Recombinant mouse or human CD73 ectodomain was used as analytes and tested at a saturating dose of 200 ng/μl. Sensorgrams were fitted using least square regression in association than dissociation Model in Prism8 (Graphpad).

With B1 as the molecule, how does the Kdis read?
The Kdis was 0.022 s⁻¹.

B2 was tested. Which Kdis did it give?
Its Kdis is 0.00017 s⁻¹.

For B3, which Kdis is on record?
The Kdis was 0.046 s⁻¹.

For B4, which Kdis is on record?
The Kdis was 0.0013 s⁻¹.

How did the Kdis turn out when B5 was run?
The Kdis was 0.00023 s⁻¹.

B6 was tested. Which Kdis did it give?
Its Kdis is 0.00045 s⁻¹.

The molecules below were run against T2, CD73-expressing human AML-OCI3 cells (assay: AMP degradation by cell bound CD73, luminometric AMPglow assay). Details: AML-OCI3 cells; 10 μl supernatant of single clone or 5+5 μl of two clones.
Format: cell-based
Experimental: AMP was added and AMP degradation was measured using the luminometric AMPglow assay. Data analyses were performed using Prism (Graphpad).
Soluble recombinant human CD73 or CD73-expressing human […] cells were incubated with CD73-specific dimeric clones SB116-rbFc, SB188-rbFc, biparatopic SB116-188-Alb trimers or with non-binding L-10e-rbFc clone (control). AMP was added and AMP degradation was measured using the luminometric AMPglow assay. Data analyses were performed using Prism (Graphpad).

With B4 as the molecule, how does the “inhibition of AMP degradation” value read?
The value was “pronounced inhibition of AMP degradation”.

How did the “inhibition of AMP degradation” value turn out when B5 was run?
The value was “pronounced inhibition of AMP degradation”.

The molecules below were run against T3, human CD73 (assay: Flow cytometry binding of rabbit IgG hcAbs to human CD73-transfected HEK cells). Details: family representative clone; h = binds human CD73, m = binds mouse CD73.
Experimental: HEK cells were co-transfected with expression vectors for green fluorescent protein (GFP) and human CD73, mouse CD73, and a control cell surface protein (CD39). 48 h after transfection, cells were incubated with HEK cell supernatants containing the indicated rabbit IgG hcAbs. Bound antibodies were detected with PE-conjugated anti rabbit IgG secondary antibody.
(§1) • 5.1 Untransfected HEK293 cells and HEK293 cells stably transfected with human or mouse CD73 were incubated for 30 min with HEK-6E cell supernatants containing rabbit IgG hcAbs (diluted 1:10 in PBS/0.1% BSA). Following washing with PBS/0.1% BSA, bound antibodies were detected with PE-conjugated goat anti-rabbit IgG polyclonal antibody (711-116-152 Dianova, Hamburg). • 5.2 For dissociation analyses, two separate aliquots of CD73-transfected cells were incubated either with Cell Proliferation Dye eFluor 450 (eBioscience) or with hcAbs for 20 min at RT. Cells were washed four times, mixed at a 1:1 ratio and further incubated at RT for 120 min before staining of bound antibodies with PE-conjugated goat anti-rabbit IgG polyclonal antibody. The dissociation of hcAbs from the target cells and association with the eFluor 450 labeled cells was analyzed by flow cytometry using the FlowJo software (Treestar). • 5.3 For epitope analyses, cells were preincubated with excess human IgG hcAbs (10 μl HEK-6E cell supernatant/100 μl PBS/0.1% BSA) for 30 min at RT before addition of Nb-rabbit IgG hcAbs (1 μl HEK-6E cell supernatant/100 μl PBS/0.1% BSA) and further incubation for 20 min at RT and staining with PE-conjugated anti-rabbit polyclonal antibody (711-116-152 Dianova, Hamburg). Cells were washed and analyzed by flow cytometry on a BD-FACS Canto. Data were analyzed using the FlowJo software (Treestar).
The binding specificities of the purified hcAbs were determined by flow cytometry using HEK cells transiently co-transfected with expression vectors for GFP and either mouse CD73, human CD73 or a control protein (CD39). 1×10^6 cells were incubated with 10 μl of the Nb-rbIgG hcAb containing HEK-6E cell supernatants for 30 min at 4° C. After washing, the cells were incubated with PE-conjugated anti-rabbit IgG polyclonal antibody (711-116-152 Dianova, Hamburg) and washed twice. The cells were resuspended in PBS and analyzed by flow cytometry on FACS Canto or FACS Celesta (BD Biosciences, Heidelberg). Data evaluation was conducted using the software FlowJo (Treestar, Stanford, US).

For B1, which specificity is on record?
Its specificity is “h + m”.

Which specificity does the source give for B2 here?
Its specificity is “h + m”.

Which specificity does the source give for B3 here?
Its specificity is “h + m”.

B5 was tested. Which specificity did it give?
Its specificity is “h + m”.

The molecules below were run against T4, human CD73-transfected HEK cells (assay: Epitope binning by flow cytometry (human IgG hcAb blocks rabbit IgG hcAb)). Details: epitope assignment on human CD73 from binning.
Format: binding
Experimental: as §1
To evaluate the epitopes on the CD73 protein recognized by different VHHs, representative rabbit IgG hcAbs were binned against a set of human IgG hcAbs, and bound hcAbs were detected with a PE-conjugated anti-rabbit IgG secondary antibody. Cells were pre-incubated with excess human IgG hcAbs for […] at RT to block specific epitopes before addition of rabbit IgG hcAbs as detectors and further incubation for 15 min at RT. Cells were washed, and bound antibodies were detected with PE-conjugated anti-rabbit IgG polyclonal antibody. Cells were washed and analyzed by flow cytometry on a BD-FACS Canto. Data were analyzed using the FlowJo software (Treestar). Lack of blockade by a non-binding control human IgG hcAb served as negative control (unblocked), and blockade of binding with the same VHH carrying human IgG hcAb as the rabbit IgG hcAb used for detection served as positive controls for blocking. Values for blocking were determined by comparing the mean fluorescence intensities (MFIs) of PE staining of transfected cells for unblocked vs blocked rabbit hcAbs using the formula: inhibition (%)=100−(MFI (blocked)/MFI MFI(unblocked)*100). The values were rounded to whole percentages.

B1 was tested. Which Epitope did it give?
Its Epitope is 4.

B2 was tested. Which Epitope did it give?
The Epitope was 1.

With B4 as the molecule, how does the Epitope read?
The Epitope was 1.

B6 was tested. Which Epitope did it give?
The Epitope was 2.

Each molecule was assayed against T1, soluble human CD73 (assay: AMP hydrolysis by soluble CD73, DPEA-Napht-Azide fluorescence assay). Details: 50 ng CD73, 30 min pre-incubation with 10 μl hcAb supernatant, 1 mM AMP.
Format: biochemical
Experimental: Recombinant human CD73 (50 ng) was pre-incubated for 30 min with hcAbs at RT in 96 well plates before addition of AMP and DPEA-Napht-Azide. Fluorescence signals were detected every 50 seconds for 30 repeats. ARFU values (>10^3/min) were calculated for a 10 min interval during the linear phase (from 5 min to 15 min) using Prism software (Graphpad). A non-specific rabbit IgG hcAb was used as control.
• 4.1 CD73 catalyzes the hydrolysis of AMP to adenosine. This reaction can be monitored by the shift in fluorescence intensity of DPEA-Napht-Azide. This property was used to determine whether hcAbs could interfere with the enzymatic activity of CD73. Soluble recombinant human CD73 (50 ng) was pre-incubated for 30 min with Nbs or hcAbs (10 μl HEK-6E cell supernatant containing 10-100 μg/ml hcAb) at RT in 96 well plates before addition of AMP (Sigma) to a final concentration of 1 mM and of DPEA-Napht-Azide to a final concentration of 50 μM. • 4.2 Fluorescence signals were recorded in white Nunc MicroWell plates (Nunc, 136101) on a Victor III plate reader (Perkin Elmer) (Exicitation filter: F485, Emission Filter: F535; CW-Lamp energy: 40000, counting time: 0.1 s). Data analyses were performed using Prism (Graphpad).
Soluble recombinant human CD73 (50 ng) was pre-incubated for 30 min with CD73-specific hcAbs or an irrelevant control hcAb (10 μl HEK-6E cell supernatant) at RT in 96 well plates before addition of AMP (Sigma) to a final concentration of 1 mM and of DPEA-Napht-Azide to a final concentration of 50 μM. Fluorescence signals were detected every 50 seconds for 30 repeats. Data analyses were performed using Prism (Graphpad).

With B2 as the molecule, how does the “effect on hydrolysis of AMP by soluble CD73” value (from here on “effect on hydrolysis of AMP”) read?
Its value is “effectively blocked hydrolysis of AMP”.

For B4, which “effect on hydrolysis of AMP” value is on record?
Its value is “inhibited CD73 catalyzed hydrolysis of AMP”.

How did the “effect on hydrolysis of AMP” value turn out when B5 was run?
Its value is “inhibited CD73 catalyzed hydrolysis of AMP”.

B6 was tested. Which “effect on hydrolysis of AMP” value did it give?
Its value is “did not”.
